Source: FireProtDB (doi:10.1038/s41598-019-41819-5)
Values joined by “and” are separate entries in the source; they are usually repeats but may differ in a detail not shown here. Equal values may be shown once.

B1: Forkhead box protein P1, Q9H334 (parent)
chain: MMQESGTETKSNGSAIQNGSGGSNHLLECGGLREGRSNGETPAVDIGAADLAHAQQQQQQALQVARQLLLQQQQQQQVSGLKSPKRNDKQPALQVPVSVAMMTPQVITPQQMQQILQQQVLSPQQLQVLLQQQQALMLQQQQLQEFYKKQQEQLQLQLLQQQHAGKQPKEQQQVATQQLAFQQQLLQMQQLQQQHLLSLQRQGLLTIQPGQPALPLQPLAQGMIPTELQQLWKEVTSAHTAEETTGNNHSSLDLTTTCVSSSAPSKTSLIMNPHASTNGQLSVHTPKRESLSHEEHPHSHPLYGHGVCKWPGCEAVCEDFQSFLKHLNSEHALDDRSTAQCRVQMQVVQQLELQLAKDKERLQAMMTHLHVKSTEPKAAPQPLNLVSSVTLSKSASEASPQSLPHTPTTPTAPLTPVTQGPSVITTTSMHTVGPIRRRYSDKYNVPISSADIAQNQEFYKNAEVRPPFTYASLIRQAILESPEKQLTLNEIYNWFTRMFAYFRRNAATWKNAVRHNLSLHKCFVRVENVKGAVWTVDEVEFQKRRPQKISGNPSLIKNMQSSHAYCTPLNAALQASMAENSIPLYTTASMGNPTLGNLASAIREELNGAMEHTNSNESDSSPGRSPMQAVHPVHVKEEPLDPEEAEGPLSLVTTANHSPDFDHDRDYEDEPVNEDME

Variants of: B1
Conditions: Homo sapiens, 37 °C, GdnHCl, fluorescence, transition: 3, structure 2KIU, whole UniProt chain shown

## S518C
pH 5
  denaturant m value: 3.2 kcal/mol/M and 1.4 kcal/mol/M
pH 7.8
  denaturant m value: 2.7 kcal/mol/M and 2 kcal/mol/M

## H520A
pH 5
  denaturant m value: 5.8 kcal/mol/M
  unfolding free energy: 17.9 kcal/mol
pH 7.8
  denaturant m value: 6.6 kcal/mol/M
  unfolding free energy: 20.2 kcal/mol

## V539C
pH 5
  denaturant m value: 3.1 kcal/mol/M and 1.1 kcal/mol/M
  unfolding free energy: 1.4 kcal/mol and 4.2 kcal/mol
